To fix the notation:
B1: TPR 5TU (parent)
chain: GGAUCUUCUCGAUCUAACAAAAAAGACAAAUCUGCCACAAAGCUUGAGAGCAUCUUCGGAUGCAGAGGCGGCAGCCUUCGGUGGCGCGAUAGCGCCAACGUUCUCAACUAUGACACGCAAAACGCGUGCUCCGUUGAAUGGAGUUUAUCAUG

Fewer inactive variants are shown than the library holds. A value given as a limit tells only on which side of the number the result lay.

Variants of B1 are the subject of this data set. Nature of the data set: polymerase ribozyme fitness, log enrichment relative to wild type (log ratio); higher = more active; in vitro selection for triplet polymerase activity. Put shortly:
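Libraries of mutants in each subunit of a heterodimeric triplet polymerase ribozyme were generated by PCR and transcribed. In triplicate, each went through one in vitro selection round: annealing with biotinylated primer, partner subunit and triplets; frozen incubation at −7 °C; gel excision of extended constructs; streptavidin-bead capture; RT-PCR. Fitness, taken from Illumina sequencing of input and output libraries, is the logarithm of a genotype's enrichment over wild-type enrichment, averaged across replicates with inverse-variance weights. The logarithm is base 2, and genotypes needed ≥10 input reads and ≥1 read per output to be kept.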
Take GGAUCUUCUCGAUCUACCAAAAAAGACAAAUCUGCCACAAAGCUUGAGAGCAUUUUCGGAUGCAGAGGCGGCUGCCUUCGGUGGCGCGAUAGCUCCAACGUUCUCGACUAUGACACGCAAAACGCGUGCUCCGUUGAAUGGAGUUUAUCAUG [A17C C54U A73U G94U A106G]: the “polymerase ribozyme fitness (log ratio)” value is -2.62. Turning to GGAUCGUCUCGAUCUAACAAAAAAGACAAAUCUGCCACAAAGCUUUAGAGCAUCUUCGGAUGCAGAGGCGGCAGCCUUCGGUGGCGCCAUAGCGCCAACGUUCUCAACUAUGACACGCAAAACGCGUGCUCCGAUGAGUGGAGUUUAUCAUG [U6G G46U G88C U134A A138G], the “polymerase ribozyme fitness (log ratio)” value is not above -4.2.

Consider GGAUCUUCUCGAUCUAACAAAAAAGACAAAUCUGCCACAAAGCUUGAGAGCAUCUUUGAAUGCAGAGGCGGCGGCCUUUGGUGGCGCGAUAGCGCCAACGUUCUCAACUAUGACACGCAAAACGCGUGCUCCGUUGAAUGGAGUUUAUCAUG [C57U G59A A73G C79U], for which the “polymerase ribozyme fitness (log ratio)” value is not above -4.2.

Regarding GGAUCUUCUCGAUCUAACAAAAAAGACAAAUCUGCCACAAAGCUUGAGAGGACCUUCGGAUGCAGAGGCGGCAGCCCUCGGUGGCGCGAUAGCGACAACGUUCUCAACUAUGACACGCAAAACGCGUGCUCCGUUGAAUGGAGUUUAUCAUG [C51G U53C U77C C95A], the “polymerase ribozyme fitness (log ratio)” value is not above -4.2. Next, GGAUUUUCUCGAUCUAACAAUAAAGACAAAUCUGCCACAAAGCUUGAGAGCAUCUUCGGAUGCAGAGGCGGCAGCCUUCGGUGACGCGAUAGCGCCAACGUUCUCAACUAUGACACGCAAAACGCGUGCUACGUUGAAUGGAGUUUAUCAUG [C5U A21U G84A C131A]: -2.96. With GGAUCUUCUCGAUCUAACAAAAAAGGCAAAUCUGCCUCAAAGCUUGAGAGCAUCUUCGGAUGCAGAGGCGGCAGUCUUCGGUGGCGCGAUAACGCCAACGUUCUCAACUAUGACACGCAAAACGCGUGCUCCCUUGAAUGGAUUUUAUCAUG [A26G A37U C75U G92A G133C G143U], the “polymerase ribozyme fitness (log ratio)” value is not above -4.2. Regarding GGAUCUUCUCGAUCUAACAAAAAAGACAAAUCUGCCACAAAGCUUGAGAGCAUCUUCGGAUGCAGAGGCGGCAGCCUUCGGUGGCGCGAUAGCGCCAACGUUCUCAACUAUGACACGCAAUACGCGUGCUCCGUUGAAUGAAGUUUAUCAUG [A121U G141A], the “polymerase ribozyme fitness (log ratio)” value came to 0.973.

GGAUCUUCUCGAUUUAACAAAAAAGACAAAUCUGCCACAAAGCUUGAGAGCAUCUUCGGAUGCAGAGGCGGCAGCCUUCGGUGGAGCGAUAGCGCCAACGUUCUCAACUAUGACACGCAAAACGCGUGCUCCGUUGAAUGGAGUUUAUCAUG [C14U C85A]: the “polymerase ribozyme fitness (log ratio)” value is -2.54. Next, GGAUCUUCUCGAUCUAACAAAAAAGACAAAUCUGCCACAAAGCUUGAGAGCAUCUUGGGAUGCAGAGGCGGCAGCCUUCGGAGGCGCGAUCGCGCCAACGUUCUCAACUAUGACGCGCAAAACGAGUGCUCCGUUGAAUGGAGUUUAUAAUG [C57G U82A A91C A115G C125A C149A]: not above -4.2; GGAUCUUCUCGAUCUAAGAAAAAAGAGAAAUCUGCCACAAAGCUUGAGAGCAGCUUCGGAUGCAGAGGCGGCAGCCUUCGGUGGCGCGAUAGCGCCAACGUUCUCAACUAUGACACGCACAACGCGUGCUCCGUUGAAUGGAGUUUAUCAUG [C18G C27G U53G A120C]: not above -4.2; GGAUCUUCUCGAUCUAACAAAAAAGACAAAUCUGCCACAAAGCUUGAGAGCAUCUUCGGAUGCAGAGGCGGCAGCCUUCAGUGGCGUGAUAGCGCCAACGUUCUCAACUAUGACACGCAAAACGCGUGCUCCGUUGAAUGGAGUUUAUCAUG [G80A C87U]: -0.519. GGAUCUUCUCGAUCUAACAAAAAAGACAAAUCUGCCACAAAGCUUGAGAGCAUCUUCGGAUGCAGAGGCGGCAGCCUUCGGUGGCGCGAUAGCGCCAAGGUUCUCAACUAUGACACGCAAAACGCGUGCUCUGUUGAAUGGAGUUUAUCAUG [C99G C132U]: the “polymerase ribozyme fitness (log ratio)” value is -1.96. Next, GGUUCUUCUCGAUCUAACAAAAAAGACAAAUCUGCCACAAAGCUUGAGAGCAUCUUCGUAUGCAGAGGCGGCAGCCUUCGGUGGCGCGAUAGCGCCAACGUUCUCAACUAUGACACGCAAAACGCGUGCUCCGUUGAAUGGAGUUUAUCAUG [A3U G59U]: -0.0606; GGAUCUUCUCGAUCUAACAAAAAAGACAAAUCUGGCACAAAGCUCGAGAGCAUCUUCGGAUGCAGAUGCGGCAGCCUUCGGUCGCGCGAUAGCGCCAACGUUCUCAACUAUGACACGCAAAACGCGUGCUCCGUUGAAUGGAGUUUAUCAUG [C35G U45C G67U G83C]: not above -4.2. To GGAUCUUCUCGAUCUAACAAAAAAGACAAAUCUGCCACGAAGCUUGAGAGCAUGUUCGGAUGCAGAGGCGGCAGCCUUCGGUGGCGCGAUAGCGCCAACGUUCUCUACUAUGACACGCAAAACGCGUGCUCCGUUGAAUGGAGUUUAUCAUG [A39G C54G A106U] belongs not above -4.2; to GGAUCUUCUCGAUCUAACAAAAAAGACAAAUCUGCCACAAAGCUUGAGAGCAUCUUCGGAUGCAGAGGCGGCAGCCUUCAGUGGCGCGAUAGCGCCAACGUUCUUAACUAUGACACGCAAAACGCGUGCUCCGUUGAAUGGAGUUUAUCAUG [G80A C105U], 0.692.

GGAUCUUCUCGAUCUAACAUAAAAGACAAAUCUGGCACAAAGCUUGAGCGCAUCUUCGGAUGCAGAGGCGGCAGCCUUCGGUGGCGCGAUAGCACCAACCUUCUCAACUAUGACACGCUGAACGCGUGCUCCGCUGAAUGGAGUUUAUCAUG [A20U C35G A49C G94A G100C A119U A120G U134C]: the “polymerase ribozyme fitness (log ratio)” value is not above -4.2. Next, GGAUCUUCUCGAUCUAACAAAAAAGACAAAUCUGCCACAAAGCUUGAGAGCAUCUUCGGAUGCAGAGGCGGCAGCCUUCGGUGGCGUGAUAGCGCUAACGUUCCCAUCUAUGACACGCAAAACGCGUGCUCCGUUGAAUGUAGUUUAUCAUG [C87U C96U U104C A107U G141U]: not above -4.2; GGAUCUUCUCGAUCUAACAAAAAAGACAAAUCUGCCACAAAGCUUGAGAGCAUCUUCGGAUGCAGAGGCGGCAGCCUUCGGUGGCGCGAUAGCGCCAAGGUUCUCAACUAUGACACGCCAAACGCGUGCUCCGUUGAAUGGAGUUUAUCAUG [C99G A119C]: -0.2.
